These results are taken from patent US6716960B2, “Mch3, a novel apoptotic protease, nucleic acids encoding and methods of use” (Idun Pharmaceuticals, Inc., priority 1995, dated 2004).

One may read the Ki as the dissociation constant of the complex between target and ligand, obtained from inhibition or displacement. One may read the Km as the concentration of substrate that gives half-maximal velocity.

Like-named read-outs stand apart in the source and are kept apart here.

For one experiment, the target named is T1, Mch3α (Homo sapiens, UniProt P55210).
T1 construct: This assay employs Mch3 polypeptide expressed in an active, processed form recombinantly in E. coli; becomes active following proteolytic cleavage into two subunits of approximately 17 kD (p17) and 12 kD (p12); GST (N, cleaved yes); made in house; host or cells: E. coli (DH5α), pGEX-2T; bacterial lysates
T1 sequence (P55210 24-198 limits assumed): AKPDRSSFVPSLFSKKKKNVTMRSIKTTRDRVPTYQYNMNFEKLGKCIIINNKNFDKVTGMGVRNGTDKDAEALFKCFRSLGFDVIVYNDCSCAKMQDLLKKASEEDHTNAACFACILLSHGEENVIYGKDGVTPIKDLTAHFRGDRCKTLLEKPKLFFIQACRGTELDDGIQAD
T1 sequence (P55210 207-303 limits assumed): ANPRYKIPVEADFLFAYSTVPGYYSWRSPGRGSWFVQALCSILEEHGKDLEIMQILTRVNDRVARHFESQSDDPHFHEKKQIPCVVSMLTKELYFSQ
The experiment in a line: Continuous fluorometric assay of recombinant Mch3α with DEVD-AMC substrate. The class given is biochemical. The protocol: The kinetic properties of the bacterially expressed recombinant Mch3α and CPP32 were determined using the tetrapeptide substate DEVD-AMC in a continuous fluorometric assay. The DEVD-AMC substrate is the poly(ADP-ribose)polymerase (PARP) cleavage site P1-P4 tetrapeptide (Nicholson et al., Nature 376:37-43 (1995)). Briefly, activity of Mch3α and CPP32 was measured using bacterial lysates in ICE buffer (25 mM HEPES, 1 mM EDTA, 5 mM DTT, 0.10% CHAPS, 10% sucrose, pH 7.5) at room temperature (24-25° C.).

In experiment [1] the target is T2, CPP32 (Homo sapiens, UniProt P42574).
T2 construct: CPP32 is cleaved at Asp28 and Asp175 to generate two polypeptides of molecular masses of 17 kDa (p17) and 12 kDa (p12); GST (N, cleaved yes); made in house; host or cells: E. coli; bacterial lysates
T2 sequence (P42574 29-175 limits assumed): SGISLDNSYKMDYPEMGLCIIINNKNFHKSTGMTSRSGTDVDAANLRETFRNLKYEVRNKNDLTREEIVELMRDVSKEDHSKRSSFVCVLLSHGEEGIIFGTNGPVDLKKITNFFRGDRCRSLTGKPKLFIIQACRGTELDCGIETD
T2 sequence (P42574 176-277 limits assumed): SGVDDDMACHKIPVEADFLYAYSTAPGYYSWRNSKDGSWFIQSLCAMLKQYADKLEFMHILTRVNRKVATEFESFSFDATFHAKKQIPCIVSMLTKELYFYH
The experiment in a line: Continuous fluorometric assay of recombinant CPP32 with DEVD-AMC substrate. Conditions: for Km: recombinant CPP32, bacterial lysate, ICE buffer pH 7.5, 24-25° C., substrate = label. The class given is biochemical.

Experiment [2] concerns the target T2, CPP32. Conditions: purified human CPP32, reported by Nicholson et al.; cited from earlier work.
A further experiment concerns Sf9 cells. The experiment in a line: Induction of apoptosis in Sf9 cells infected with recombinant baculoviruses. Conditions: for Induction of apoptosis: expressed separately in Sf9 cells.

Turning to `CC(=O)N[C@@H](Cc1ccc(O)cc1)C(=O)N[C@H](C(=O)N[C@@H](C)C(=O)N[C@H](C=O)CC(=O)O)C(C)C` [YVADaldehyde, YVAD-CHO], the Ki on Mch3α was greater than 10 µM; on CPP32 [1], 8.5 µM.

Consider “YVADamc: YVAD tetrapeptide amc substrate listed in Table I”, for which the Km with CPP32 [1] is greater than 500 µM.

As to `CC(=O)N[C@@H](CC(=O)O)C(=O)N[C@@H](CCC(=O)O)C(=O)N[C@H](C(=O)N[C@H](C=O)CC(=O)O)C(C)C` [DEVDaldehyde, DEVD-CHO], at Mch3α, the Ki worked out at 0.0018 µM.

Consider DEVD-AMC [DEVDamc], for which the Km in the experiment with Mch3α (bacterial lysate, ICE buffer pH 7.5, 24-25° C., substrate = label) was 51 µM; with CPP32 [1], 13 µM; in the experiment with CPP32 [2], 9.7 ± 1 µM.

B1: truncated Mch3α (amino acids 1-198): truncated Mch3α that encodes only the p20 subunit (protein)
chain: MADDQGCIEEQGVEDSANEDSVDAKPDRSSFVPSLFSKKKKNVTMRSIKTTRDRVPTYQYNMNFEKLGKCIIINNKNFDKVTGMGVRNGTDKDAEALFKCFRSLGFDVIVYNDCSCAKMQDLLKKASEEDHTNAACFACILLSHGEENVIYGKDGVTPIKDLTAHFRGDRCKTLLEKPKLFFIQACRGTELDDGIQAD
Consider B1, for which the Induction of apoptosis result with Sf9 cells is recorded as “unable to induce apoptosis”.

B2: Mch3α: full length apoptotic cysteine protease, 303 amino acids (SEQ ID NO: 2), expressed from recombinant baculovirus (protein)
chain: MADDQGCIEEQGVEDSANEDSVDAKPDRSSFVPSLFSKKKKNVTMRSIKTTRDRVPTYQYNMNFEKLGKCIIINNKNFDKVTGMGVRNGTDKDAEALFKCFRSLGFDVIVYNDCSCAKMQDLLKKASEEDHTNAACFACILLSHGEENVIYGKDGVTPIKDLTAHFRGDRCKTLLEKPKLFFIQACRGTELDDGIQADSGPINDTDANPRYKIPVEADFLFAYSTVPGYYSWRSPGRGSWFVQALCSILEEHGKDLEIMQILTRVNDRVARHFESQSDDPHFHEKKQIPCVVSMLTKELYFSQ
In the case of B2, the Cells undergoing apoptosis entry in the experiment with Sf9 cells (expression in Sf9 cells, 42-48 h postinfection) is “approximately 50%”.

B3: truncated Mch3α (amino acids 199-303): truncated Mch3α that encodes only the p12 subunit (protein)
chain: SGPINDTDANPRYKIPVEADFLFAYSTVPGYYSWRSPGRGSWFVQALCSILEEHGKDLEIMQILTRVNDRVARHFESQSDDPHFHEKKQIPCVVSMLTKELYFSQ
Consider B3, for which the Induction of apoptosis entry with Sf9 cells was “unable to induce apoptosis”.
